Source: US20040147443A1

How the values were obtained:
[1] = molecular target: type-L calcium channels, verapamil site (rat cerebral cortex homogenates) (rat); assay: inhibition of specific binding of (3H)(-)D 888 by 5% Argireline; rat cerebral cortex membranes
[2] = molecular target: type-L calcium channels, verapamil site (rat cerebral cortex homogenates) (rat); assay: specific binding of 0.5 nM (3H)(-)D 888 left with the MIXTURE of 1.0% Argireline and 1 x 10^-4 M magnesium gluconate; rat cerebral cortex membranes
[3] = molecular target: type-L calcium channels, verapamil site (rat cerebral cortex homogenates) (rat); assay: specific binding of 0.5 nM (3H)(-)D 888 left with 1.0% Argireline; rat cerebral cortex membranes, scintillation counting; replicate 1
[4] = molecular target: type-L calcium channels, verapamil site (rat cerebral cortex homogenates) (rat); assay: inhibition of specific binding of 0.5 nM (3H)(-)D 888 by the MIXTURE of 1.0% Argireline and 1 x 10^-4 M magnesium gluconate; rat cerebral cortex membranes
[5] = molecular target: type-L calcium channels, verapamil site (rat cerebral cortex homogenates) (rat); assay: inhibition of specific binding of (3H)(-)D 888 by 10% Argireline; rat cerebral cortex membranes
[6] = molecular target: type-L calcium channels, verapamil site (rat cerebral cortex homogenates) (rat); assay: specific binding of 0.5 nM (3H)(-)D 888 left with the MIXTURE of 1.0% Argireline and 1 x 10^-4 M magnesium gluconate; rat cerebral cortex membranes; replicate 1
[7] = molecular target: type-L calcium channels, verapamil site (rat cerebral cortex homogenates) (rat); assay: specific binding of 0.5 nM (3H)(-)D 888 left with 1.0% Argireline; rat cerebral cortex membranes, scintillation counting; replicate 2
[8] = molecular target: type-L calcium channels, verapamil site (rat cerebral cortex homogenates) (rat); assay: specific binding of 0.5 nM (3H)(-)D 888 left with 1.0% Argireline; rat cerebral cortex membranes, scintillation counting; replicate 3
[9] = molecular target: type-L calcium channels, verapamil site (rat cerebral cortex homogenates) (rat); assay: specific binding of 0.5 nM (3H)(-)D 888 left with the MIXTURE of 1.0% Argireline and 1 x 10^-4 M magnesium gluconate; rat cerebral cortex membranes; replicate 2
[10] = molecular target: type-L calcium channels, verapamil site (rat cerebral cortex homogenates) (rat); assay: specific binding of 0.5 nM (3H)(-)D 888 left with the MIXTURE of 1.0% Argireline and 1 x 10^-4 M magnesium gluconate; rat cerebral cortex membranes; replicate 3
[11] = molecular target: type-L calcium channels, verapamil site (rat cerebral cortex homogenates) (rat); assay: inhibition of specific binding of 0.5 nM (3H)(-)D 888 by 1.0% Argireline; rat cerebral cortex membranes, scintillation counting
[12] = molecular target: type-L calcium channels, verapamil site (rat cerebral cortex homogenates) (rat); assay: specific binding of 0.5 nM (3H)(-)D 888 left with 1.0% Argireline; rat cerebral cortex membranes, scintillation counting

B1: Argireline (acetyl glutamyl-glutamyl-methionyl-glutaminyl-arginyl-arginylamide hexapeptide, from Lipotec) (peptide)
peptide: Ac-EEMQRR-NH2
[1]
  mean percentage of inhibition: 36%
[2]
  Mean % of binding: 84%
[3]
  % of binding: 95.1%
[4]
  Mean % of inhibition: 16%
[5]
  mean percentage of inhibition: 52%
[6]
  % of binding: 81.6%
[7]
  % of binding: 93.1%
[8]
  % of binding: 99.9%
[9]
  % of binding: 85.3%
[10]
  % of binding: 85.1%
[11]
  Mean % of inhibition: 4%
[12]
  Mean % of binding: 96.1%
